Results: IntAct's records for PubMed 20453063

Target: chd8_human CHD8 (UniProt Q9HCK8)
Sequence of UniProt Q9HCK8 (Q9HCK8 whole entry): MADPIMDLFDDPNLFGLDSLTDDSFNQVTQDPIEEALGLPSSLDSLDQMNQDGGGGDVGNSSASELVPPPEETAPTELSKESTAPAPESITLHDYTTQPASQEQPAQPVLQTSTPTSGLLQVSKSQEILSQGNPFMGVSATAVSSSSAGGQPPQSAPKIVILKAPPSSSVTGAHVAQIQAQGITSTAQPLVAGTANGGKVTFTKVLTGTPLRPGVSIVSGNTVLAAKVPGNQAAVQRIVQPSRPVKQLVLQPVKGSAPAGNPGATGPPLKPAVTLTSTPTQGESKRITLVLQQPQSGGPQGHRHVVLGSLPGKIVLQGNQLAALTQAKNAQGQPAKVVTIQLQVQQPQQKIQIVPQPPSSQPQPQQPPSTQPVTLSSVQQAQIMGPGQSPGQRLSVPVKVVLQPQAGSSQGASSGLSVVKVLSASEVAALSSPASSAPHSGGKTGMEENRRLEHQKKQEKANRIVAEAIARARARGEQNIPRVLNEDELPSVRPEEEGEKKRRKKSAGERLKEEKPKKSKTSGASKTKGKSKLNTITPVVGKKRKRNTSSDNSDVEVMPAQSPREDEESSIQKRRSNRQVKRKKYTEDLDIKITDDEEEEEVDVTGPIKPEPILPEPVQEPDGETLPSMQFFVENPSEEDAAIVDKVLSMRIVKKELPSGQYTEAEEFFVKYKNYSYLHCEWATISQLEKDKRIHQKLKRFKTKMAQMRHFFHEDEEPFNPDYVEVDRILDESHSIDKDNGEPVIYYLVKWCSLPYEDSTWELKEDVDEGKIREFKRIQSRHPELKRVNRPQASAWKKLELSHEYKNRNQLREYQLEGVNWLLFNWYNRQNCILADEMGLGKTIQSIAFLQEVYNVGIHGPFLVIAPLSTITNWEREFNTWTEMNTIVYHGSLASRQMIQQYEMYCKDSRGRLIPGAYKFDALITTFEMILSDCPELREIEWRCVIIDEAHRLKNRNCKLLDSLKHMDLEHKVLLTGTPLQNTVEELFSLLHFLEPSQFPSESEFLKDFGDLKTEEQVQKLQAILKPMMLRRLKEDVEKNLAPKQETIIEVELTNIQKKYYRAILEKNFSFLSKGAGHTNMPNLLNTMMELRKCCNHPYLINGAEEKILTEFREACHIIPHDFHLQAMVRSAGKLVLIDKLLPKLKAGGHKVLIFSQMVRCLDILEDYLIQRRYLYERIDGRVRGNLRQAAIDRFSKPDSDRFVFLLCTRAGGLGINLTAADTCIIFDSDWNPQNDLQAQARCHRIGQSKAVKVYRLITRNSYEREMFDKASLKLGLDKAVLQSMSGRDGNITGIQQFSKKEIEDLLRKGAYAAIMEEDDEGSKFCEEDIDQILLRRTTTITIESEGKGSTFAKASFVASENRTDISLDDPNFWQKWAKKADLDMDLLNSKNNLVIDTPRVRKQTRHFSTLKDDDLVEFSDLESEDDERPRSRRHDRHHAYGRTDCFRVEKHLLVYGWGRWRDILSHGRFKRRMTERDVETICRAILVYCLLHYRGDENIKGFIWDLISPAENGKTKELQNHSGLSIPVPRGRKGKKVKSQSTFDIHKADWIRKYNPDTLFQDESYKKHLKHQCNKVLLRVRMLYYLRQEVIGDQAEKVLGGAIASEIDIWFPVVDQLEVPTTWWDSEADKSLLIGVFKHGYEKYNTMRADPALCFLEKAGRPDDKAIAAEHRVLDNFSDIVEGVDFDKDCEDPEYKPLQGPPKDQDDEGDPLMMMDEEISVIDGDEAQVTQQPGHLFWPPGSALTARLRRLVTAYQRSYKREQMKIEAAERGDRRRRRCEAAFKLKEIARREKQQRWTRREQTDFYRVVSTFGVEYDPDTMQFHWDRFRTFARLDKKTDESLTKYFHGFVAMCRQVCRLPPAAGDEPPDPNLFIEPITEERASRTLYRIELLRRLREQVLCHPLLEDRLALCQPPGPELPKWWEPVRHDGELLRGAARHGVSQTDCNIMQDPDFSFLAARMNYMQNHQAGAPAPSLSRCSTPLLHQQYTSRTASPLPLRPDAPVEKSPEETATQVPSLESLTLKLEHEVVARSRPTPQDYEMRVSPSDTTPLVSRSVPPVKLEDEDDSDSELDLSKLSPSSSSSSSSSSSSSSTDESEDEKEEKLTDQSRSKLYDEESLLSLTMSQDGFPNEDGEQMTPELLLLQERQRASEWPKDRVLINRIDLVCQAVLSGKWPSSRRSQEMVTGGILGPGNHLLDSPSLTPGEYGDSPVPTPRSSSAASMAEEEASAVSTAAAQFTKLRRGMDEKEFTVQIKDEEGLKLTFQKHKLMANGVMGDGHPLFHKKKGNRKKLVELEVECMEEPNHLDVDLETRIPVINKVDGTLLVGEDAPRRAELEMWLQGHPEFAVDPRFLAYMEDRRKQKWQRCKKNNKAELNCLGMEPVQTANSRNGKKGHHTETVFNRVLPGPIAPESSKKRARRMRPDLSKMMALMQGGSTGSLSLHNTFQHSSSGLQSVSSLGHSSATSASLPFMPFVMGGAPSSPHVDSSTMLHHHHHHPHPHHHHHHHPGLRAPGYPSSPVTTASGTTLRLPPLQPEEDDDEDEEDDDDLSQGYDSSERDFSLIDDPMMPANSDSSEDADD

effect of a mutation on the interaction | Substance
disrupting interaction | Chromodomain-helicase-DNA-binding protein 7 (Homo sapiens), Q9P2D1 G2108R
disrupting interaction | Chromodomain-helicase-DNA-binding protein 7 (Homo sapiens), Q9P2D1 H2096R
disrupting interaction | Chromodomain-helicase-DNA-binding protein 7 (Homo sapiens), Q9P2D1 W2091R
